Measured values taken from a protein production outcome set (Wang et al. 2014).

Experiment: label from the status in PepcDB records

Protein production, failed:
MNYSSRQQPKRNWLRKVDWILVLVISLLALTSVILISSAMGGGQYSANFSIRQIIYYIFGAIIAFLIMIISPKKIKNNTYILYSIFCVLLIGLLILPETSITPIINGAKSWYSFGPISIQPSEFMKIILILALAKTISKHNQFTFNKSFQSDLMLFFKILGVSIIPMALILLQNDLGTTLVLCAIIAGVMLVSGITWRILAPLFIVAFVSGSSIILAIIYKPSLIENLLGIKMYQMGRINSWLDPYSYSSGDGYHLTESLKAIGSGQLLGKGYNHGEVYIPENHTDFIFSVIGEEMGFIGSVLLILLFLFLIFHLIRLASKIDSQFNKVFIIGYVSLIVFHVLQNIGMTVQLLPITGIPLPFISYGGSSLWSLMTGIGVVLSIYYHEPQRYEITTLSKKSNTI
MPADWLARPRFVSAFSIVVFLLLAAFGEYVVRIEAERLRVIAQNQVLAEASTIRARLEGELYSTLYLANGLSSYVSAHKALDPAAVKIILSTVFGYGRHLRNIVLAPDNEVRFTYPLKGNEKVIGFRYQDNAEQWRAVKRAMETRTTVLSGPVDLVQGGRGLISRTPVFLPDGEYWGIVALVINIDSLFATINKDRRPARITWALRSNDETGEKGRILFGDAWLFDHDHVNLSIAIPGGSWELAATPAEGWRPPGKRLLVLRIATLALSGLIAALVFLVLFERIRIQHLALHDSLTDLPNRRLLDDRLERAIAQARRNRDGFALLYVDLDDFKPINDRFGHRAGDHVLVEIARRLRGALRRADTVARVGGDEFMLILPGARGRHGAMTVVQKLAGIICQPIGYKGQYLNVSASIGVSTYPENGVTADALISHADGSMYRFKQHRKSPTDINGNQRSGAVSSEVS
MPAIEVGETFTETRTFRPEDVDQFTALSGDDQPRHTEPDGDGRRMVQGLLTASLLTSIGGDLEVLASRMDLQFQRPVYTGETLVCELTVVSADPHTDGGVALVGDVAVRRVNRDDNSGQADTAAPNSADSAPAGTVVLEATVEGLIRE
MPALSGLHLAPSVASFLCLAWTVALYFAVKPLYQRLPRIWLSPAIVVPALTIPLLLITGIPYAEYVADTRWMVWLLGPATIAFAVPIYEHREIVRRHWIALALGVIAGMLVAMLSARLLAEAFHFSSEVSSSLMARSVSTPFAVAVVAHTGGSAELVSLFTVMTGLAGMIVGDTVLGLLRLRSPVAQGASLGTAAHGFGTARARQRHAEEGVVASLTMVLAGVLMVIAGPTLTGWVTALVG
MPAPHPDSSVAPTTRLIAERALAAVFQPIVDLGSGTVVGYEGLIRGPRGTDLEPPAALFAQAARDGTTIALEQAAALACLDAFAALGCDGKLFLNFSAGTIVQLVRERERARQLLGRAGVGAERIVIELTEQTAMPDVARIEPAVASLRDAGIQFALDDYGTANASMNLWLRLHPDVVKIDRFFIHDIARDPLKFEAVRAMQHFAHASGAQLIAEGIENASDLIVVRDMGICCVQGFLLGRPNARPSPVVAPAARDAIRTPHIAVFPGAMRTARPAGTIAAKMLVPAPALPRDATSNDVLDLFNRMPGLHAVALVERGRPVALVNRRGFIDRFTLPYHREVFGKKPCLQFANDAPLMIDNATSVEQLAMLLASHDQRYLADGFVITEHGRYLGLGTGESLVRAVTEMRIEAARYANPLTFLPGNIPISAHIDRLLERDAGFHACYVDLNQFKPFNDQYGYWQGDEVLKFAATVLAGVCDPQRDFLGHVGGDDFLVLFQRDDWRARATDAIARFNDGAQRFYTQADRLAGGLRGEDRHGNPAFFGFVTMAIGAVGVPAGAHGAMRYGSDEIASVAALAKRRAKQQPGGLAVVDLDAGRAALRERGEPPLAAAG
MPAQQAEQAANLGLAGFQFLAQGVFAALLLQLHAFEFGARLTADLPLALLVGMLGAEGLFGLARAVFAHPLGGRLGLAARLGPGFAGFHERLYLRNVTQSE
MPAQTNLKPVLTAAQVNVLMETVYPQLNEQFKYYEAIDVFPGGCTVRLNAGERHLRPGGTVSGPSLFTLADIGGYVCVLSHAGPDALSVTVNLDINFVRKAEAGPIDGHCRILKLGKSLMVFAIDIVAGPEGQTIAHATGTYSIPPKRIGDVVK
MPASCQETARLLLRAPTLDDLPQACAIHGDPQTNRFNPNGPINAAACADKLHGWIEHWQQHGFGYWAIALRSDPQRLIGFGGIMQGFFGHEPGLNLYFRLRPEAWGQGYAAEMARAALHLAFSELHAPRVTGLVRPDNLPSRRALERLGLSLDGELDDFPGQAPSLLYRISAPDNPVPG
MPASVMTDLSAAWAAFEAHDYALAERQAQALLAHPATASGARFMLGYVYAFMDRFDEARASFQALQQQAQKSGDHTAEHRALHQVGMVERMAGNWDAARRCFLEERELLASLPEDPLAASANAYEVATVALHFGDLAGARQEYEKSLVYAQQADDQVAIACAFRGLGDLAQQEKNLLEAQQHWLRARDIFAELEDSEAVNELMTRLNGTEG
